Source: the supplement of paper PMC12636428

test system: Saccharomyces cerevisiae; assay: transcriptional activation domain activity (GFP:mCherry ratio, weighted mean of sorted bins, harmonized to initial dataset scale) (arbitrary fluorescence ratio units); higher = stronger transcriptional activation; conditions: beta-estradiol 1 µM; induction time 4 h
How it was run: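 Activation activity, the read-weighted mean of bin median fluorescence averaged across barcodes, was linearly mapped onto the scale of the initial dataset. It was measured for barcoded protein tiles fused to an estradiol-inducible synthetic transcription factor at URA3 in GFP-reporter yeast diploids. Cultures diluted 1:5 into SC with 1 uM beta-estradiol were held 4 hours at 30 °C, sorted into 8 bins by GFP:mCherry ratio, and barcode-sequenced, and tiles under 50 reads were discarded.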

Sequence	transcriptional activation domain activity
LIRAVWSHFKADFNAIYLGRLLVLLAYQKRRPRPPTGYNLGHHADPGLHTFWA	38200
PLWLAPNLVTLLGFFCILFNIFLLVILVPDLVGPGPSWLYYSFGLGVWMYSTM	68600
IGQFRFLQRLVLVHGRWSYRRLAETISNFFYKNMIWTFSIFWYQVFCNFDITY	24600
PSNQAFWIACLFSSVMYHLLFHLLLLFFSLLFLFFLFFLPSYHVLFHFHHMTG	47700
CKRCSTLTCVGCGSRPLEKKLATEINVQGTKLTWCCSRGRLFVIWAILCGFDQ	43900
EAEEEESEKKDKKRKKDKEGKKKKKSKSSEEKETEEEKVEEKKSEESSESKKD	< 6570
GRTLSRYEPTNVCVVLILIWLGIYHYFLQVLQVRTHATARKIVLLYGWYTLRI	53400
MCKVSCLGLFGGSFFFFGFGFYLLFYSSFHFSLPGWLVWILYFFFTFFGGSLR	45900
ESAVKFENSGPFINPSRASTLLVSRDSNRIILSGTTARGKTAVFLTTGLLVES	63200
LLVANLTILDTFGLEESAIRIWNVCKPLGHLGQNALLILMLRLKDTMLIPWPL	72200
KKSGTTSKDEKKEGDSDSKATPSSGESAAPSAANNEGGKKEEKSEEKKEEKEE	41700
MTEQAPTIRTAEKDTEGPAKRRRRPALSCVECRSRKVRCDRGKPCRACTRVRS	26200
GFVGENSASASVVEVLLRTGGFSTRSLRRRLLETFQLVLEVTHSLAFIKPGGK	53300
AGDMGIERTGVDLHNGKHPLNALLKAIVGKLHLPLYFHWGPLNIGSCFSIPYA	50300
IETLYRLVTTHSGQDYFIQSVHHGILLLNLLYMDIPYFTEWVGLSCQLYNVIT	27700
CIFFFSYYGIRILQRGVLLLFILLFYISLCDPLLFPPLFFFSSSFLGRAFFLY	89800
FFNILILQWRRIRCCKVVSTSLCLENTLGVAQLFVQFVLFTLIFILYMIYFPP	48300
QDNLNIEDKEEMSPNIEIKNEQNMTDSNDILGVFDQLDAQLFGKYLPLNYPSE	81700
ILKRNMYFIIPLLLLLLGTVALAIYDTIWLLMRTYARGHLSHSHRFWSLLFYS	55700
AAEDGKKGDKAEVGKRGDKAEVKKVKKVDGEEAGGEKVVVEKKAGAEQKAVKA	17500
SYITYYQSRQFVMIPWYFYFIIITCVLTIIFVMAVCFLFYIHLLLPILVMLWS	35400

Sequence	transcriptional activation domain activity
VTSLATARLPAARPRTAVLPARATSAVRRVTCRANAPRTAVRVTAATVPSATR	45400
REARRHADEEARRRQARQEARRHADEEARRRQEEELARQEARRHADEEARRRQ	27000
LWTCLLITLILPSPLFSSLFFPSPLFSFLLCLFFTFYLSFPSLFLSCPPPFAG	51800
LTQSRGFIWPPILLAVFFSALGGFYWWSASFFLLASPVAFAPCLFWVLLLFLF	18000
CNICVLLCQIIEVASLVEQRDTIELIKTRYLNRLKLMKPDDVLQTYVSTLLNA	32400
MLLVSLVRVVHGFTVQQYIYTGQWLLYISLIFFLLHFPLVMKPITFLTILCLA	55100
EGGADGEEEEDGEEEVKEKVPAKRGRKPRGERVEEVSSPAAPVRGKKAKPTTA	41200
MDLGEERYRRLVSYLFFSFLYLHFIFLYFSFLWFMACGSWQWLNNLFFFISSF	63800
EVMKIMPVQKQTRAGQRTRFKAFVVIGDSDGHVGLGVKCAKEVATAIRGAIIL	55300
MSFFWDTSLCACVTRIREMSFWEFLVGLAFFFFFLVKGSCICVACFFFFFFWS	34200
YPNLSGNTFICSSRGSITGRMTVSGDDFIASQYDYSYSHVWRNLGILIAFWIF	53500
DKATMRRAFFERIVTERINIMGKMSISLIHSLIVDCMFLSTARSFLWLLWAYV	56300
SPWSLPHLESKFVEDGLYYAIQVISYISKINSKASYYYYQIRMLLVASRFIMQ	46000
AAARAPHVAPAPPDARPKSKKRKSSSPDDGRAPAKSRRLSPARAAPAKPKHRR	12300
MNFFFCMRSWTLLCYPKTGLLFFILCFFSSALSILSPPPCIFFFFFFLSRVCC	45100
MADRGTGAGGEGRGRGGFGRGGRGRGGPRGRGGRGGRGGRKDEEKEWVPVTKL	24800
LLVLFACQIICETIVIGITSNAFSVVVLPPYFTGCLPGNIKPFAWVYWLPMLL	59400
ASSSTPGAHQPTRRSAGAHRSEEHSVVLHLPPGTHRMKFIVDDRWRVSRELPT	29000
EHVFLVYFFIFTMQEFAGELVSLVDVMRRIYSLDQARANRAHWWKWIFRCWLH	58900
ELVVLRFWSLKAIVFFFVLVLQTVSLGAGKGGGLYKDLFTLFLHILCILELCC	61300
ASENSESSDSSDDEADVPSRKGNAASAVNTMADDDDDEEGGGGATTAAAARTK	16900

Sequence	transcriptional activation domain activity
MPPCGLVSLTCLTELVLGLNITACVVILVDGNHLIYILSLFFWCWILLTLPAT	35500
EKDKKEETKDEPKKNEVKPETKDDVDEKKDENGRPKLVVKRLRKETTAAAAVA	37600
MSFFCLFHQLFDISCIFIYLILLENHFSLLCYLLLIFNFNCYFVIFSFLVLNF	54800
EPAEEEEEEDDDDEDDPEVRRKEELRARMAKMSAGMGGMGGMMNPFAAPVAPG	62200
MGGFVYAYCSAQSLTLLPWLLFFDYLFFSFLCILNYISFLFFYFLGFEVGWVI	71200
LALFGMKMVEAIMTMIHMDFRYCDFLGILPLLIFLIPCHYFYTLLKIKALLTY	60600
FISKLCILGGSQICNHFWGGIEIILESFYFILTTLINFWDFINLPNAFLWGLF	72800
KAAAAPKKKKAGVSDEEEKEEEEAESTPVDEDPKPKTKKLAAAKKPAAAAAAK	33700
AARVSDYSMAQFRFLLKFLLVHGRWNYVRICKYTVGTFWKELLFYLTQALFQR	48200
MNQTSCFFSAFFLFALFLSFPSFLLPSFFLLFLLFYFFPSYLLLCLFSLIFYK	57200
RKRKASASPERDEEGKSGPKGRGRTARRGSKAGRGKSGGTQRGGRKGASEREV	38500
MSDDSGASPTQRSVRKPHRKSRNGCLDCRRRRVKCGEEHPSCRVCVRRNVRCE	49800
SRHGREASEERARRKRRERQRDNDGGNRSRRKHTSPSSDDADRLTRKRKSRHE	11000
KFNLLEWSEILSLLTCYRLLIAMYSFRSLVIVIASYIVFGLSVFSLLVRLLFL	38100
LLQMDKAGFVKDEITDVFALVVCRNLSLFHICAYILNVYRNYIMMVLEALRAQ	64800
GIESAGLEVITAQQLEQYAKDQKVLSNCMERNGITAVLCVGLRYIACLIMIIY	66200
STTKSICYVLRHLMITYVFYLSATGIDDLTVLIGNHSHNMIRTIVRSALWISY	39900
AIYSNIMGFLGGVAWAMLVAHICQLFPNACAAAIVTRFFRIMYQWKWPQPVLL	64900
VGLYSLCIVSGILFPLYICCWREDFLIQNFVHRSLFTLVFMLLFLLGLIFLEF	56900
MLIGTVFLICSLNLCLLFLGWAWGCIVLYLDDLNILLLSCLFTFFLCTFTFFS	40900
NASPAAVVATTATATPERAVSAAAGDNNASTLTKRGRGRPRKAAKHTQAQTQA	36500

Sequence	transcriptional activation domain activity
GFAKDTQDEEYVQHHDNVNPTIPPPDNYILNNENDDGLDNLLGMDYYNIDDLL	101000
FANWLGLQKNGMGMRLFPFFIFSLFFLSFFSLFWGFSFFFSFSFFFGFSFFWF	23100
TKQGHELLHQLRHLIIFREGMPCSDITLKLDIHVSKLVFVFLSAFEHGLCSKD	58200
VVVYCKSIDLLFRVALYLWRSPAVIAWISFAARQARVIVATVVFGLGINRADI	69400
IYCAGWVFRYFFLFPYRLSLLLAATLFFFLALPIVLYFKNDEWQRWLFRFYCQ	57500
MAMVRCMDLYNLDGNGMGKFYTWQFFPFFRFWFLPVCMLLLPFVLVSCLAFFI	58400
MGFLTVHSCVFCFVVWVFFFPFFFLRDWFFSHSIFFLSLFFLVFFYIHLFLLG	43700
VERCHRNIVPNGCAVFQAGGLVVVLVEVSRKSYLASLVPVIVNAILNEHQIVV	65300
STARKPRKKKEAEKTVDGAEDEITEETQKPKRKASTKRTSRKTTTDKEETTAT	24200
YLVHAGVTQDFSLIGRKGVYSLGELEEIRHWVHQALLHCRLLLVCRKALQLVY	71800
DSKLLPGFASYLSFCLFLYAITTVLPFFSLDCPYSTPLTPLMCRLYHFFMFGI	66800
WYAPDAGGSVYDYITLTAGLDALNCAQKVRISPLLIVLLRNFAVRCLLSKGSL	52300
MCGGGWAFGLFFFFLYFFFFFLHIALLLPPLETVYFVLFFCMISRGLCFIFFF	65400
TWHHSIYVPYSFVAAYDHPVCYLIHRFLPLYLTAITFRFHIMTYLLLVGLFSL	45200
MGRLGTLGLSQEQLDNLRYYKYAAVDRSQLTKYVLRHYWNWAITLFPTWIAPN	32100
NFDWWAKYNCESLRDAVIGFLTRDCLDSRVGYFRSVVRWIGCRLYFGLLIIFF	72700
NKMKVHINKTNYELDSKEAVMAVLGTHRVEVSVLCLLYLVLRRHKKILDFASS	48200
GGKAKGRKGKEKEKEKEVADKPAARKCAAPKAAPKKATVKKAAKKVKETGKGS	28700
AVAALVGVGFGLSGYFLVCNVYPILSSADSKSLCLLVLVLLALSFKVLFFNYY	48300
RAYGCEAAFITVLQEKINHYTRCARVFYNLNRWVAVRLELLSSLFTTALAAYL	63400
